The values that follow come from the supplement of paper PMC12042874.

± gives the uncertainty stated by the source.

A short description of the data set: amyloid nucleation score (Sup35N fusion, yeast selection) (log enrichment); library NNK1; higher = more nucleation; inactive = no reads after selection. Summed up: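 The nucleation score, computed with DiMSum, is the log enrichment of output over input reads, centred on the mode score of non-aggregating sequences. Sequences with under 100 input reads were dropped. Reads were generated by Illumina sequencing of plasmid inserts from psi-negative yeast with Sup35N fused to peptides of 20 random codons, induced with 100 μM copper sulfate for 24 hours and grown 7 days at 30°C on medium lacking adenine and uracil.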

For the substance SVCILHMRRSCVGKPPKYNA, the amyloid nucleation score result was “inactive”. The same measure for EHHGGISGGNKCCSTCKSRR: 0.361 ± 1. In turn, GVQWKLIFIGQCAVAVAWLA returned an amyloid nucleation score of -2.05 ± 1.8. The same measure for NFKTSKWYESGRASRSS: -0.076 ± 0.41. Take FYYYSEFLGPIVYPQHDLLL: the amyloid nucleation score was -0.1 ± 1.1. The same measure for CYEEPRMPNFFAVFYNSMLE: 0.144 ± 0.41; for SLWFTYCQ: 0.751 ± 0.38. To LQKFMLV belongs 0.638 ± 0.53; to LFKFYCKTYHTPLSLIYPFW, “inactive”. To VRLMSTAMLRRLELVLYST belongs 0.539 ± 0.32; to ISLRGRCITSKGSSYYAIKY, “inactive”; to SADLCLMWSGTNC, “inactive”. HFCMGWVYLPELMYRFYMCF had an amyloid nucleation score of -0.494 ± 0.35. Consider RSSILMVVVANHSIIVTRGV, for which the amyloid nucleation score came out at 3.04 ± 0.13. On to RTLFIRSLVYFVLSSFIFAV, for which the amyloid nucleation score is -0.004 ± 0.36. To NEAMN belongs -0.21 ± 0.37; to NLVFSMPAVWALVYVFTLFI, 1.51 ± 0.37. To RCYHWVDLVCVRVGTRACFL belongs 0.877 ± 1.1; to LVLFVTFGWCIDELRWMKRR, -0.51 ± 2.1; to RDLPFVTSSLCCSNTSGCMF, 0.429 ± 0.53. VRTFWCYCTWPASRYR: the amyloid nucleation score was -0.001 ± 0.51. To LFGTS belongs 0.501 ± 0.51. To MCLLKGGSLVIVCGSGH belongs 5.76 ± 0.061. To DWLMMDLL belongs 0.103 ± 1.1; to CSWLSFVEEVGLGSERGVRG, -0.629 ± 1; to RVVRSATADITACMSLNIYR, 0.879 ± 0.56. The substance FLARNFCIC gave an amyloid nucleation score of 5.67 ± 0.064. Substance FIEHQTRSFDKILSYAWLEA registered an amyloid nucleation score of 0.379 ± 0.61.

In turn, IAYGSINCGFNRL returned an amyloid nucleation score of 1.18 ± 0.32. The same measure for YIHLMRYARNLLPFRYCV: -0.641 ± 0.5; for LNSGASMLWQTLSYPMSRVR: -0.506 ± 1.2. Turning to HCIPLALICGGSSSPVVEYL, the amyloid nucleation score turned out to be 0.686 ± 0.43. To FPFAYGVSESQSSVIHVLDV belongs -0.063 ± 0.26. The same measure for DFKVAL: -0.644 ± 0.35; for LWCVLHDVGGGSYSLDRYTG: 0.379 ± 0.83; for LLNLHGSLMYLPSDLLGSHS: 0.156 ± 0.56. Substance TSMPDLGWAVSVAAQFYNFQ displayed an amyloid nucleation score of 5.5 ± 0.077. To ARPFRRCYSKADAWGVQQVG belongs 0.556 ± 0.79; to DPGVNALVLLILKTWDRDYE, -0.638 ± 0.69; to LWVVRI, 0.67 ± 0.85.

For the substance PLTVVLRSV, the amyloid nucleation score result is “inactive”. The same measure for RRTIYASLRLY: 0.066 ± 0.29; for VYAILKDFFYFFGVNFFCCF: 4.18 ± 0.06; for VSNTHVNGGWSRRNGQWLGV: -0.708 ± 0.45. The same measure for CWAKEFFNNESIRG: 0.077 ± 0.49. Turning to VSRVTASYRFIFNYYEMDTS, the amyloid nucleation score entry is “inactive”. The same measure for VFLLKDRNTTCLWKSVIQQM: 0.494 ± 0.34; for LYSDGLFANRTWLYF: 1.01 ± 0.61; for VAFYGFITKINLEIY: 0.578 ± 0.4.

The substance GVFSSQDTRAIDLCSGVYVM returned an amyloid nucleation score of 0.003 ± 1.2. DYDIWDAMPAQFQRITMYSV gave an amyloid nucleation score of -0.243 ± 0.36. The same measure for HFASRLMRKEFAVRFLRGFS: -0.608 ± 1.2; for DRRYVKLLRLYCCILECTKV: -0.18 ± 0.38.

In turn, NTMLQKVKCWKRRVDSSRQE had an amyloid nucleation score of 0.093 ± 0.87. On to CFLMNLVAYFVFLRTLS, for which the amyloid nucleation score came to 1.49 ± 0.56. Consider NPWIT, for which the amyloid nucleation score amounted to 1.65 ± 0.35. The same measure for PGSANASLTERFLMKMVGED: 0.053 ± 0.78; for VTSLCYRNFFGVVEVLRYCQ: 0.677 ± 0.51. SSSVVSV had an amyloid nucleation score of 0.102 ± 0.33. Turning to YSYSEGSLYQCSVSVV, the amyloid nucleation score was determined as 0.601 ± 0.7.

YDLGLIVSYDLLSVKEVPDR showed an amyloid nucleation score of 1.48 ± 0.55. To RTLGFLRCFIITSVDSTKNA belongs 0.514 ± 0.8; to CWIMYDYSSPGLFL, -1.1 ± 1.6; to LNRVLMTIWCTPMSICTYDC, 3.89 ± 0.12. Regarding SSYNLKYLWGCIC, the amyloid nucleation score came out at 7.263 ± 0.048.

For NLSWRISKHMALGVRCLWCH, the amyloid nucleation score was 0.791 ± 0.72. The same measure for CFEFDPFMNMVKSCWCCQVA: -0.281 ± 0.93. To RCVIDDKLWGISLRGPMMGV belongs -1.48 ± 1.9; to GSATRTPVITQRICLPVGCR, -0.691 ± 0.56; to ICACIMELCSLLHGIRGM, -0.378 ± 1.4. Consider SVSLFMITVFNVTC, for which the amyloid nucleation score was 2.4 ± 0.14. To YCSSVEVGVYLNVLICFSGL belongs 3.18 ± 0.062; to AVITLQVHLLPEYFQAACIT, 0.154 ± 0.38.

GQFEFCMFAQYGAS displayed an amyloid nucleation score of -1.14 ± 2.4. On to SSSHPSLIGNLDTRLNWMTM, for which the amyloid nucleation score came to 1.52 ± 0.32. To RVCCWHFTFVTVCCKLLSMT belongs 1.93 ± 0.23. As to HDSSF, the amyloid nucleation score is -0.038 ± 0.56. To RSVSLNRSTRRRR belongs 1.1 ± 0.41; to ISWRNYWY, 1.01 ± 0.22.

With KAVYLRVRGTHCVNNVALWK, the amyloid nucleation score is 3.43 ± 0.18. To AAFTSSNYMFGFYFGLWVSN belongs 1.55 ± 0.45; to ILRAFWESGHTGGVWATVSS, -1.19 ± 0.77; to LDRFCYLVYRRRCGYSRWQM, 0.527 ± 0.39. The same measure for LTSRIEWNGHAQSLWWLLSK: 0.711 ± 0.21; for RAFNRIINHRTEGNNPYYFL: “inactive”. To RKTNLGWHSICRA belongs -0.435 ± 0.28; to MWAIFSLWVCSR, 1.35 ± 0.41. In turn, FPYGSVIVVFVDFWYRLSSV displayed an amyloid nucleation score of -0.343 ± 0.34. To RFIIFNHDLGLRD belongs -0.384 ± 0.51; to KGDVPGYARCEVKTVRTFWM, 0.231 ± 0.41; to PDGPANSSKDGDFCDKLR, 1.4 ± 0.6. To TCNNRSSSCR belongs 1.1 ± 0.61. With LKSLLNSSGVTLGEVLRMGV, the amyloid nucleation score is -0.091 ± 0.45. The same measure for WSHSILCIQSRSRIYPTHWL: 0.495 ± 0.29. Consider CETVG, for which the amyloid nucleation score result was “inactive”. To ALLWQECYMP belongs 2.26 ± 0.17; to HLGGVWLLIHMRRSFPLDIW, 0.207 ± 0.7. The same measure for FVGEN: 0.281 ± 0.52; for DFLKGLFIRFRKSNFE: -1.11 ± 1.7; for ELTGFFFCVRTSKCRIW: 0.533 ± 0.46. The substance NRYRCYDCTLVGRVSYS registered an amyloid nucleation score of -0.436 ± 0.29. The same measure for QQVSVLILPALTKGRKVV: -0.991 ± 0.69; for WEVRGHPSGLMEVRDLGVRF: 0.249 ± 0.59.

For the substance LLMYLLHSCYNVMHCLCLNF, the amyloid nucleation score turned out to be 0.128 ± 0.21. The same measure for VGSHVRREFCELVYRS: -0.303 ± 0.44. To SHSLHLESSASSLTR belongs -1 ± 0.51; to EYLAFDVPNWVGFLGSLWNM, -0.064 ± 0.8. The substance SRFHVKLRLYFGSNIARTSK showed an amyloid nucleation score of 6.618 ± 0.061.

The substance AWKGWFLMGYCGDRVMWDWR came in with an amyloid nucleation score of -0.131 ± 0.73. To LFNKNGYNSETRFLFKLGFD belongs 1.02 ± 0.56; to IAYLNKAKNLFLC, “inactive”; to RSFSECLMSGHTIFQFGMYM, 4.26 ± 0.14. To ILHFWLTYK belongs 4.63 ± 0.1; to YSIPNDLNPSCKSHLMPRGH, 1.23 ± 0.41.

The substance SYCLLIDLLLHSHVGLYSPM yielded an amyloid nucleation score of 0.519 ± 0.33. To SKFNAIMNCDVIKRSLNCIN belongs 0.022 ± 0.3; to RLYLNDNTLSCF, -0.001 ± 0.22.

Take ARMSNMNPLFWLP: the amyloid nucleation score was -0.04 ± 0.35. To IYQQIYN belongs -0.807 ± 2.4; to VLLFVVLHLNLSVHILQNFQ, -0.396 ± 0.54; to WLESRQPAEESVVVWNERVG, -0.831 ± 1.3. With DNNLGLSWLSILAGFGH, the amyloid nucleation score was -1.23 ± 0.91.

For YVTIIDKIYIWLDVVNRDLP, the amyloid nucleation score is 2.55 ± 0.29.

In turn, PYIRVRLFMVVY yielded an amyloid nucleation score of 0.659 ± 0.56. Substance IARYSTVYPVPHNCRNHKHS displayed an amyloid nucleation score of 0.15 ± 1.1. To NCFVWRRMFKLISFDPYRV belongs “inactive”; to LSHWHGCCKSHRYIQF, 0.244 ± 0.3; to QIVRTRFNRYR, -0.313 ± 1.1.

In the case of TFAFISLDMVWLASAH, the amyloid nucleation score is -0.051 ± 0.26.

In turn, MGYCIWFYLKSYH registered an amyloid nucleation score of -0.074 ± 0.3. To IFGKTFTGYMVRFGVVHDLA belongs 0.358 ± 0.41; to CMMMYVCLLSSGHVGMSLGV, 0.18 ± 0.43.

For the substance CHNHRMYH, the amyloid nucleation score came out at 0.072 ± 0.9.

The substance ELVSS had an amyloid nucleation score of -0.455 ± 0.26. Substance YQWFMYVF came in with an amyloid nucleation score of 4.61 ± 0.11. MSSRDNFWVSRGAMNYRMGA returned an amyloid nucleation score of -0.325 ± 0.33. To YRITERIFFDQKASHVWLIT belongs -0.165 ± 0.41; to NRTYVGWEVILPKVWNSSVY, -0.663 ± 0.61; to CCFSSMNFIS, 4.04 ± 0.082. The same measure for SIVETAVVSKYVERSYGQEG: -0.437 ± 0.36.
